Laboratory results: patent US20030148958A1 (PROCTER AND GAMBLE, published 2003)
Ends that are not written are not given here.

T1: corticotropin releasing factor 2 receptor
T1 sequence (Q13324 whole entry, species assumed, looked up): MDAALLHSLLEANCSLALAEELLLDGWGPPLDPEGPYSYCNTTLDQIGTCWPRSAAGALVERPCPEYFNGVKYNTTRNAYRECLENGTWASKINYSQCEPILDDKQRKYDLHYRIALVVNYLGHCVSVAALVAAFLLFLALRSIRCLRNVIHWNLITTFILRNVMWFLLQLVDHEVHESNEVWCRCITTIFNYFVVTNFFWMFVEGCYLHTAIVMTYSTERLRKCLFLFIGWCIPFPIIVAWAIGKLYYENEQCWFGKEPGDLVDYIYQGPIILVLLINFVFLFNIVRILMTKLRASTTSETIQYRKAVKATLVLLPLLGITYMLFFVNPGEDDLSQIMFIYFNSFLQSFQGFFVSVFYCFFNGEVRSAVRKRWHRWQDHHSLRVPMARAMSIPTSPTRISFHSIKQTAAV


How the values were obtained:
[1] = molecular target: corticotropin releasing factor 1 receptor; test: cell-based or functional assay
[2] = molecular target: T1, corticotropin releasing factor 2 …; test: cell-based or functional assay
For CRF1R Emax in this document: reference of the scale not given here.
For CRF2R Emax in this document: reference of the scale not given here.

CRF1R EC50 [1] [nM] | CRF1R Emax [1] [%] | CRF2R EC50 [2] [nM] | CRF2R Emax [2] [%] | Binder
100 | 11.2 | 100 | 12.6 | SQEPPISLDLTFGLLREVLEMTKADQLAQQAHSNRKLLDIA-NH2 [SEQ ID NO 88]
> 1000 | 48 | 20.6 | 100 | ZGPPISIDLPTLLLRKMIEIEKQEKEKQQAANNRLLLDTI (C-terminal amide) [SEQ ID NO 51]
> 100 | 12 | > 100 | 89 | ZGPPISIDLPTALLRKMIEIEKQEKEKQQAANNRLLLDTI (C-terminal amide) [SEQ ID NO 61]
> 100 | 7 | 55 | 100 | ZGPPISIDLPTHLLRKMIEIEKQEKEKQQAANNRLLLDTI (C-terminal amide) [SEQ ID NO 74]
> 100 | 5 | > 100 | 52 | ZGPPISIDLPIGLLRKMIEIEKQEKEKQQAANNRLLLDTI (C-terminal amide) [SEQ ID NO 75]
73.2 | 34 | 67.3 | 100 | ZGPPISIDLPGYLLRKMIEIEKQEKEKQQAANNRLLLDTI (C-terminal amide) [SEQ ID NO 63]
> 100 | 33 | 38.5 | 74 | ZGPPISIDLPFGLLRKMIEIEKQEKEKQQAANNRLLLDTI (C-terminal amide) [SEQ ID NO 68]
> 100 | 4 | > 100 | 55 | ZGPPISIDLPTQLLRKMIEIEKQEKEKQQAANNRLLLDTI (C-terminal amide) [SEQ ID NO 72]
68.9 | 57 | 63.3 | 94 | ZGPPISIDLPNYLLRKMIEIEKQEKEKQQAANNRLLLDTI (C-terminal amide) [SEQ ID NO 64]
> 1000 | 13 | > 100 | 10 | ZGPPISIDLPTPLLRKMIEIEKQEKEKQQAANNRLLLDTI (C-terminal amide) [SEQ ID NO 52]
> 100 | 6 | 94.8 | 56 | ZGPPISIDLPTELLRKMIEIEKQEKEKQQAANNRLLLDTI (C-terminal amide) [SEQ ID NO 71]
> 100 | 7 | 91.5 | 76 | ZGPPISIDLPIELLRKMIEIEKQEKEKQQAANNRLLLDTI (C-terminal amide) [SEQ ID NO 76]
> 100 | 55 | 6.53 | 88 | ZGPPISIDLPLQLLRKMIEIEKQEKEKQQAANNRLLLDTI (C-terminal amide) [SEQ ID NO 80]
> 100 | 8 | > 100 | 44 | ZGPPISIDLPTRLLRKMIEIEKQEKEKQQAANNRLLLDTI (C-terminal amide) [SEQ ID NO 60]
1000 | 10 | 100 | 11 | ZGPPISIDLPDYLLRKMIEIEKQEKEKQQAANNRLLLDTI (C-terminal amide) [SEQ ID NO 54]
> 100 | 10 | > 100 | 27 | ZGPPISIDLPTNLLRKMIEIEKQEKEKQQAANNRLLLDTI (C-terminal amide) [SEQ ID NO 59]
> 100 | 12 | > 100 | 46 | ZGPPISIDLPPYLLRKMIEIEKQEKEKQQAANNRLLLDTI (C-terminal amide) [SEQ ID NO 57]
44.2 | 96 | 10 | 50 | ZGPPISIDLPFELLRKMIEIEKQEKEKQQAANNRLLLDTI (C-terminal amide) [SEQ ID NO 67]
11 | 84 | 2.34 | 100 | ZGPPISIDLPFYLLRKMIEIEKQEKEKQQAANNRLLLDTI (C-terminal amide) [SEQ ID NO 85]

CRF1R EC50 [1] [nM] | CRF1R Emax [1] [%] | CRF2R EC50 [2] [nM] | CRF2R Emax [2] [%] | Binder
> 100 | 11 | > 100 | 11 | ZGPPISIDLPTGLLRKMIEIEKQEKEKQQAANNRLLLDTI (C-terminal amide) [SEQ ID NO 73]
> 100 | 14 | 50.4 | 87 | ZGPPISIDLPSYLLRKMIEIEKQEKEKQQAANNRLLLDTI (C-terminal amide) [SEQ ID NO 56]
> 100 | 8 | 18.2 | 82 | ZGPPISIDLPTYLLRKMIEIEKQEKEKQQAANNRLLLDTI (C-terminal amide) [SEQ ID NO 70]
> 100 | 16 | 71.6 | 100 | ZGPPISIDLPKYLLRKMIEIEKQEKEKQQAANNRLLLDTI (C-terminal amide) [SEQ ID NO 58]
52.2 | 96 | 1.91 | 81 | ZGPPISIDLPLHLLRKMIEIEKQEKEKQQAANNRLLLDTI (C-terminal amide) [SEQ ID NO 83]
> 100 | 6 | 24.6 | 78 | ZGPPISIDLPIQLLRKMIEIEKQEKEKQQAANNRLLLDTI (C-terminal amide) [SEQ ID NO 78]
82.2 | 99 | 1.77 | 100 | ZGPPISIDLPFQLLRKMIEIEKQEKEKQQAANNRLLLDTI (C-terminal amide) [SEQ ID NO 84]
> 100 | 16 | 67.9 | 64 | ZGPPISIDLPRYLLRKMIEIEKQEKEKQQAANNRLLLDTI (C-terminal amide) [SEQ ID NO 65]
96.2 | 85 | 10.9 | 90 | ZGPPISIDLPLELLRKMIEIEKQEKEKQQAANNRLLLDTI (C-terminal amide) [SEQ ID NO 82]
34.5 | 88 | 5.85 | 81 | ZGPPISIDLPFHLLRKMIEIEKQEKEKQQAANNRLLLDTI (C-terminal amide) [SEQ ID NO 69]
11.6 | 92 | 7.95 | 95 | ZGPPISIDLPWYLLRKMIEIEKQEKEKQQAANNRLLLDTI (C-terminal amide) [SEQ ID NO 55]
> 100 | 5 | 43.4 | 100 | ZGPPISIDLPIHLLRKMIEIEKQEKEKQQAANNRLLLDTI (C-terminal amide) [SEQ ID NO 77]
> 100 | 8 | 22.3 | 100 | ZGPPISIDLPIYLLRKMIEIEKQEKEKQQAANNRLLLDTI (C-terminal amide) [SEQ ID NO 79]
60.9 | 81 | 4.3 | 73 | ZGPPISIDLPLYLLRKMIEIEKQEKEKQQAANNRLLLDT (C-terminal amide) [SEQ ID NO 81]
100 | 4.6 | 100 | 8.1 | SQEPPISLDLTIGLLREVLEMTKADQLAQQAHSNRKLLDIA-NH2 [SEQ ID NO 86]
783 | 64 | 31.5 | 100 | IVLSLDVPIGLLQELLEMARAEQLAQQAHSNRKLMEII-NH2 [SEQ ID NO 1]
100 | 5.3 | 100 | 14.7 | SQEPPISLDLTIHLLREVLEMTKADQLAQQAHSNRKLLDIA-NH2 [SEQ ID NO 87]
100 | 9 | 100 | 12 | IVLSLDVPGPLLQILLEQTKQEAAREQATTNARILARV-NH2 [SEQ ID NO 5]
